Measured values published in patent US20210179727A1 (LYVGEN BIOPHARMA, published 2021).
Each block holds one binder with its values, some of them ahead of it.

Tests used:
[1] = molecular target: T1, human CD40-His tag protein (Sino Biological Inc. Cat #10239-H08E) (human, UniProt P25942 21-193); test: ELISA, plate coated with human CD40-His at 1 ug/ml, anti-human IgG-HRP, A450
T1 construct: also called human CD40 protein; CD40 protein; not shown: His tag
Method: CD40 protein (human CD40-His tag protein (Sino Biological Inc. Cat #10239-H08E) or rhesus monkey CD40-His (Sino Biological Inc. Cat #90097-C02H) was diluted in PBS to 1 ug/ml and used to coat an ELISA plate (Corning, Cat #9018, high binding) at a concentration of 50 ul/well. The plate was incubated overnight at 4° C. The plate was then decanted and washed with PBS-T, and 200 μl/well assay diluent (1×PBS/1% BSA/0.05% Tween-20/0.05% proclin 300) was added. After a 3 hour incubation at room temperature, the plate was washed with PBS-T three times. The testing antibodies were diluted in assay diluent to 0, 0.000003, 0.00003, 0.0003, 0.003, 0.03, and 0.3 ug/ml or approximately 0, 0.00002, 0.0002, 0.002, 0.02, 0.2 and 2 nM and then added to the plate (50 ul/well). The plate was incubated for one hour at 37° C. and then washed three times with PBS-T. Anti-human IgG-HRP conjugate (Bethyl Cat #A80-319P) at a 1:10,000 dilution was added to the plate (100 ul/well). The plate was incubated for 0.5 hour at 37° C., followed by washing with PBS-T three times. The TMB substrate solution was added (100 ul/well). The color was allowed to develop for 8 minutes before it was stopped with 100 ul/well 2N H₂SO₄. Absorbance at 450 nm was determined with an ELISA reader.

[2] = molecular target: monkey CD40 protein (plate coat of the ELISA of Fig. 5) (cynomolgus monkey per paragraph 23; rhesus …); test: ELISA on monkey CD40 protein coated on the plate, anti-human IgG-HRP, A450

T1 sequence (P25942 21-193 limits assumed, stated change not applied): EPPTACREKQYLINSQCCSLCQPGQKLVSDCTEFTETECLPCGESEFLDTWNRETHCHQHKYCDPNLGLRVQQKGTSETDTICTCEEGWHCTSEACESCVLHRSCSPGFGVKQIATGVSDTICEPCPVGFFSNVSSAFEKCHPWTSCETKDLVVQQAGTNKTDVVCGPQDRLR

- EC50 (read off the curve) [1]: ~20 ng/mL
B3: LYV391 (chimeric antibody, 36G7B8 in hG4SP / human kappa) (antibody, human IgG4 S228P, kappa, V domains shown)
VH: QVQLQQPGAELVRPGASVKLSCKASGYIFISYWIHWLKQRPGRGLEWIGRIDPNNGGTKYNEKFRYKASLTVDKSSSTAYMQLSSLTSEDSAVYYCTKGVITTLVAGDYWGQGTTLTVSS
VL: DVVMTQIPLSLPVSIGDQASISCRSSQSLVYSYGNTYLHWFLQKPGQSPKLLIYNVSNRFSGVPDRFSGSGSGTDFTLRISRVEAEDLGVYFCSQGTHVPWTFGGGTKLEIKR
notes: Human IgG4 S228P and human kappa; also called 36G7B8 chimeric; 366788 (LYV391)

- EC50 (read off the curve) [2]: ~5 ng/mL
- EC50 (read off the curve) [1]: ~20 ng/mL
B4: LYV379 (chimeric antibody, 17C5C2 in human IgG4SP / human kappa) (antibody, V domains shown)
VH: EVHILETGGGLVKPGGSLGLSCTTSGFNFNDYFMNWVRQAPGKGLEWVAQIRNGNYDYAAYYAESLEGRVTISRDDSKSSVNLQVSSLRAEDTAIYYCTSYYYDGHFDYFDNWGHGVMVTVSS
VL: DIKVTQSPSFLSASVGDRATINCKASQNLNKYLNWYQQKPGEPPKLLIYNTDNLYTGIPSRFSGSGSVADFTLTISGLQPEDVATYFCMQHNVRRTFGGGTKLELKR
notes: Human IgG4 S228P and human kappa; also called 17C5C2 chimeric

Second part, the binder before the results:

B1: LYV378 (chimeric antibody, 9F12D9 in human IgG4SP / human kappa) (antibody, V domains shown)
VH: EVHLVESGGGLVQPGRSLKLSCAASGFTFTNYGLHWIRQAPTKGLEWVASISPSGGVTYYRDSVKGRFTISRDNGKTTLHLQMDSLRSEDTATYYCALPFLGWGGANWIAHWGQGTLVTVSS
VL: DIQMTQSPASLSASLGETVSIECLASEDISNDLAWYQQKSGKSPQLLIYFVDRLLDGVPSRFSGSGSGTRHSLKISGMQPEDEADYFCQQSYKYPPTFGGGTKLELKR
notes: Human IgG4 S228P and human kappa; elsewhere it is 9F12D9; also called 9F12D9 chimeric; 9F12D8
- EC50 (read off the curve) [1]: ~4 ng/mL

B2: LYV376 (chimeric antibody, 19G6D6 in human IgG4SP / human kappa) (antibody, V domains shown)
VH: EVQLQQSGPELVKPGASVKIPCKASGYTFTDYNMDWVKQSHGKSLEWIGDINPNNDISIYNQKFRGKATLTVDKSSSTAYMELRSLTSEDTAVYYCARRFAYWGQGTLVTVSA
VL: EIVLTQSPTTMAASPGEKITITCSASSSISSNYLHWYQQKPGSSPKVLIYRTSNLASGVPVRFSGSGSGTSYSLTIGTMEAEDVATYYCQQGSSIPYTFGGGTKLEIKR
notes: also called 19G6D6 chimeric; 1966D6 (LYV376)
- EC50 (read off the curve) [1]: ~3 ng/mL

B5: LYV377 (chimeric antibody, 13F1A7 in human IgG4SP / human kappa) (antibody, V domains shown)
VH: EVQILETGGGLVKPGGSLRLSCATSGFNFNDSFMNWVRQAPGKGLEWVAQIRNKNYNYATYYTESLEGRVTISRDDSKSRVYLQVSSLRAEDSAVYYCTSYYYDGFADYFDYWGQGVMVTVSS
VL: DIKMTQSPSFLSASVGDSVTFTCKASQNIYIYLNWYQQKFGEAPKLLIYNTNNLQTGIPSRFSGSESGTVFTLTISSLQPEDVATYFCLQHSSRRTFGGGTKLELKR
notes: Human IgG4 S228P and human kappa; also called 13F1A7 chimeric; LTV377
- EC50 (read off the curve) [1]: ~4 ng/mL
